Source: paper PMC10536698

System: CcpA (Streptococcus agalactiae GD201008-001), ORF:5b4dc1e2
Assay: EMSA
Conditions: EMSA: 20 mM Tris-HCl pH 7.5, 30 mM KCl, 1 mM DTT, 1 mM EDTA, 10% glycerol, 20 uL, 30 min at 37 C; 10% PAGE in 0.5x TBE on ice

Row | Sequence | binding
1 | AAGTTTTCTCCTTTTGTATTACATTCTAGAGACTAAAGGAGATGTTGAAAATTTCTCCTAATCCCTTTAAATAACATTCTAATCATATCATAAATGTCTATAATTTTAAATTGTGAAAACGCCTTTTTTATGATAAACTTAAAAGTGGACTTTCTATATGAAATCTAGAAAAAAATTGAGGTATAAAC (double strand) [luxS promoter] | binds
2 | AGTATTTGTAAAAGCTAATCTTTAGATTAGGCTTTTTTAGTTTATTGATAGTTTTTGGAAGAAAATGCTTGACATTGAAAGAAAAAGAGATATAATTAAATTGCAAACGATTTCAATTCAAGGAGGGAC (double strand) [fruRKI promoter] | binds
